{"source": "the nanobody polyreactivity screen of Harvey et al. (2022)", "data": [{"test": "yeast display, Sf9 membrane polyspecificity reagent, FACS + sequencing; frameworks hold sequencing errors", "procedure,_shortened": "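A nanobody's polyreactivity label depends on the gate it was sorted from. Yeast display cells were stained with 10% biotinylated, detergent-solubilized Sf9 membrane reagent for 1 hour at 4 °C, enriched on streptavidin microbeads and sorted by FACS. The low and high (top ~1%) gates were set on anti-HA fluorescence for expression and streptavidin fluorescence for reagent binding.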", "values": [{"sequence": "QVQLVESAGGLVQAGGRLRLSCPPSGSTFAYNAMGWYRPEPGKERELVADITSGGSTKYADSVKVRFTISRDNAKNTVFLQMNSLKPEDTAVYYCAAVSVISGDFNYWGQGTEVTVSS", "polyreactivity (PSR sort gate)": "low polyreactivity"}, {"sequence": "QVQLVESGGGLVQAGGSLRLSCAASGRTFQYYAMGWYRQAPGKERELVAAITWTGGSTYYADSVKGRFTISRDNAKNTVYLQKNSLKPEDTAVYYCIARYKTLGSQSRSGPGGKYGYWGQGTQVTVSS", "polyreactivity (PSR sort gate)": "high polyreactivity"}, {"sequence": "QVQLVESGGGLVQAGGSLRLSCAASGRTFYNYAMGWYRQAPGKERELVATITGRGGRTFYAHSVKGRFTISRDNAKNTVYLQMNSLTPEDTAVYYCAAYGSASPYYTLYVEHDYWGQGTQVTVSS", "polyreactivity (PSR sort gate)": "low polyreactivity"}, {"sequence": "QVQLVESGGGLVQAGGSLRLSCAASGFTFYTNVMGWYIQAPGKERELVAAINSGGSTNYADSVKGRFTISRDNAKNTVYLQMNSLKPEDTAVYYCNKRGTEIGYDYWGQGTQVTVLS", "polyreactivity (PSR sort gate)": "low polyreactivity"}, {"sequence": "QVQLVESVGGLVQARGSLRLICAASVRIIRGNAMGWYRQAPGKERELVAAISRRSGSTYYADSVKGRFTISRDNAKNTVYLQMISLKPEDTAVYYCAATCSLGDFRYDYWGQGTQVSVSS", "polyreactivity (PSR sort gate)": "high polyreactivity"}, {"sequence": "QVQLVESGGGLVQAGGSLRLSCAASGRTLRRYAMGWYRQAPGKERELVAAISRSGSSTYADSVKGRFTISRDNAKNTVYFQMNSLKPEDTAVYYCNAVYGYSAHGYYYRYDYWGQGTQVTVSS", "polyreactivity (PSR sort gate)": "high polyreactivity"}, {"sequence": "QVQLVESGGGLVQAGGSLRLSCAASGSIFERYAMGWYRQAPGKERELVAAISWSGGRTYYADSVKGRFTISRDYAKNTFFLQMNSLNPEDTAVYYCARVVQPGSPIYDYWGQGTQVTVSS", "polyreactivity (PSR sort gate)": "high polyreactivity"}, {"sequence": "QGQLVDSGGGVVQAGGSLRLSSAASGRSFGRNVMGWYRPAPGKERELVAAIRYSSGGTYYADSVKGRFTISRDYAKNTVDLQMNSLKPEDTAVYYCAARFFRGYRGGDWGQGTQVTVSS", "polyreactivity (PSR sort gate)": "high polyreactivity"}, {"sequence": "QVQLVESGGGLVQAGGSLRLSCAASGRIFQANAMGWYRQAPGKERELVAAISWSGGSTYYADSVKGRFTISRDNAKNTVYLQMNSLKPEDTAVYYCAKDYVHQYGVYKVWANNYNYWGQGTQVTVSS", "polyreactivity (PSR sort gate)": "low polyreactivity"}, {"sequence": "QVQLVESGGGLVQAGGSLRLSCAASGFIFSENAMGLYRPAPGKERELVAAISDAGGSTYYADSVKGRFTISRDNAKNTVYLQMNSLKPEDTAVYYCNAVYHPKGPSGYGYWGQGTQVTVSS", "polyreactivity (PSR sort gate)": "low polyreactivity"}, {"sequence": "QVQLVESVGGLVQAGGSLRLSCAASGFILAVYVLGWYRQAPGKERELVAAISWSGGSTYYADSLKGRFTISRDNAKNTVYFKMNRLKPEYTAVYSCNTVAKSPVKYDYWGQGTQVTVSS", "polyreactivity (PSR sort gate)": "high polyreactivity"}, {"sequence": "QVQLVESGGGLVQAGGSLRLSCAASGIILIHNAMGWYRQARGKERELVAAISTRGGRTYYADSVKGRFTISRDNAKNTVYLQMNSLKPEDTAVYYCAAYRTTPYRDYKMDYLGQGTQVTVSS", "polyreactivity (PSR sort gate)": "high polyreactivity"}, {"sequence": "QVQLVESGGGLVQAGGSLRLSCAASGITFEVYAMAWYRQAPATERELVAVITSVGSTNYADSVKGRFTISRDNAKNTVYLQMNSLKTEDNAVYYCAGEKWTVRRFNPYTYYRYDYWGQGTQVTVSS", "polyreactivity (PSR sort gate)": "low polyreactivity"}, {"sequence": "QVQLVESGVGLVQAGGSLRLSCAASGLIFRPYTMGWDRQAPGKERELVATITGSGASTNYADSVKGRFTISRDNAKNTLYLQMNSLKPEDTAVYYCKGRSYSRMYYWGQGTQVTVSS", "polyreactivity (PSR sort gate)": "high polyreactivity"}, {"sequence": "QVQLVESGGGLVQAGGSLRLSCAASGSTFPYYAMGWYRQAPGKERELVARISYRGGRTYYADSVKGRFTISRDNAKNTVYLQMNSLKPEDTAVYYCAADRWVYYHSTRYDYWGQGTQVTVSS", "polyreactivity (PSR sort gate)": "high polyreactivity"}, {"sequence": "QVQLEESGGGLVQAGGSLRLSCAASGIIFWEYAMGWYRQAPGKERELVAAINARGTRTYYADSVKGRFSISRDNAKNTVYLQMNSLKPEDTAVYYCAADRYGWTRYDSWGQGTQVTVSS", "polyreactivity (PSR sort gate)": "high polyreactivity"}, {"sequence": "QVQLVASGGGIDQAGGSHRLSCAASGSIFPAYTMGWYRPAPGKERELVAAITRRGGSTYYADSVKGRFTISRDNAKNTVYLQMNSLKPEDSAVYYCAADGFNSDDTPSWYWGEYWGPGTQVTVSS", "polyreactivity (PSR sort gate)": "low polyreactivity"}, {"sequence": "QVQLVESGGGLVQAGGSLRLSCAASGFTLQPYAMGWYRQAPGKERELVAAISSRGGRTYYADSVKGRFTISRDNAKNTVYLQMNSLKPEDTAVYYCAATGGYVYPRSRLYYYWGQGNQVTVSS", "polyreactivity (PSR sort gate)": "high polyreactivity"}, {"sequence": "QVQLVESGGGLVQAGGSLRLSCAASGLILDYNDMGWYRQAPGKERELVASITGGGSTYYADSVKGRFTISRDNAKNTVYLQMNSLKPEDTAVYYCNADPVGVYGFDLDYWGQGTQVTVSS", "polyreactivity (PSR sort gate)": "low polyreactivity"}, {"sequence": "QVQLVESGGGLVQAGGSLRISCAASGSTITWYTMGWYRQAPGKERELVATIRKRGGSTYYADSVKGRFTISRDNAKNTVYLQMNSLKPEDTAVYYCNDTRLIYRFNPEEAGSTIPYDYWGQGTQVTVSS", "polyreactivity (PSR sort gate)": "high polyreactivity"}, {"sequence": "QVQLQESAGGLVQAGGSLRLRCSASGYSSCDASMGWYRQAPGKERELAASITKGSSTNYADSVKGRFTIRDNAKNTVYLQMNSLKPEDTAVWYCGVTYPYWGDYTYWGKGTQVTVSS", "polyreactivity (PSR sort gate)": "low polyreactivity"}, {"sequence": "QVQLQESGDGLVQAVGSLRLSCAASGYISGYYYMGWYRQAPGKERELVAGIDAFGSSTNYADCVKGRFTISRDNAKTTVYLPPNSPKPEDTAVYYCAAEYDDWDYHWYWGQGTQVTVSS", "polyreactivity (PSR sort gate)": "low polyreactivity"}, {"sequence": "KVQLVESGGGLFQAGGSLSLSCAATGSSYGGYVMGWYRQAPGKERELVASISGNGASTTYADSVKGRFTISRDNAKNTVYLQMNSLKQEDTAVYYCNARDWYIVWYEYWGQGTQVTVSS", "polyreactivity (PSR sort gate)": "low polyreactivity"}, {"sequence": "QVQLVESGGGLVQAGGSLRLSCAASGFTFSTNAMGWYRPAPGKERELVAAISYGGVSTYYADSVKGRFTISRDNAKNTVYLQMNSLKPEDTAVYYCAAGRITTRLYGDPFDYWGQGTQVTVSS", "polyreactivity (PSR sort gate)": "low polyreactivity"}, {"sequence": "QVQLVESGGGLVQAGGSLRLSCAASGITFPVYVMGWYRQAPGKERELVAAISNGGDTYYADSVKGRFTISRDNAKNTVYLQMNSLKPVDTAVYYCAAYYSFPNDYGYEYDYWGQGTQVTVSS", "polyreactivity (PSR sort gate)": "low polyreactivity"}, {"sequence": "QVQLVESGGGIVQAGGSLRLSCAASGSIFDSYTMGWYRQAPGKERELVATINRSGGSTYYADSVKGRFTISRDTAKNTVYLQMNSLKPEDTAVYYCATVYPYTPYSSWRSKYDYWGQGTQVTVSS", "polyreactivity (PSR sort gate)": "low polyreactivity"}, {"sequence": "QVQLVESGGGLVQAGGSLRLSCAASGRIFFANAMGWYRQAPGKEWELVGAISRGGRTNYADSVKGRFTISRDNAKNTVYLQMNSLKPEDTAVYYFAAVRLSHAPSYYLYGMAYWGHGTQVTVSS", "polyreactivity (PSR sort gate)": "low polyreactivity"}, {"sequence": "QDQLEESGGGLVQAGGSLRLSCAASGRIFFRNLMGAYRQPTGKERELVATITSGGRTYYADSVKGRFTISRDNAKNTVYLQMNSLKPVDTAVYYCATVYRPGGVYGYEYWGQGTQVTVSS", "polyreactivity (PSR sort gate)": "high polyreactivity"}, {"sequence": "QVQLVESGGGLVQAGGSLRLSCAASGRTFGSNLMGWYRQAPGKERELVADISVSGGSTNYADSVKGRFTISRDNAKNTVYVQLNSLNPEDTAVYYCAASQLSDWPPYYYDFDYWGQGTQVTVSS", "polyreactivity (PSR sort gate)": "low polyreactivity"}, {"sequence": "QVQLVESGGGLVQAGGSLRLSCAASGNTITFNTMAWYRQAPGKEREVVAVISRSGGSTYYADSVKGRFTISRDNAKNTVYLQMNSLKPEDTAVYYCAATGFSYRYFQTRDYWGQGTQVTVSS", "polyreactivity (PSR sort gate)": "high polyreactivity"}, {"sequence": "QVQLVESGGGLVQAGGSLRLSCAASGSTFNIYAMGWYRQAPGKEREFVASIRWSGGSTYYADSVKGRFTISRDNAKNTVYLQMNSLKPEDTAVYYCAGRTFWGAYDYWGQGTQVTVSS", "polyreactivity (PSR sort gate)": "high polyreactivity"}, {"sequence": "QVQLVESGGGLVQAGGSLRLSCAASGLILDGYAMGWYRQAPGKERELVAAITRSGGRTYYADSVKGRFTISRDNAKNTVYLQMNSLKPEDTAVYYCAALGWSGRYRYDYWGQGTQVTVSS", "polyreactivity (PSR sort gate)": "high polyreactivity"}, {"sequence": "QVQLVESWGGLVQAGGSLRLSCAASGRIFVKYAMGWYRQAPGKERELVAAISWIGGSTYYADSVKGRFTISRDNAKNTVYLQMNSLKPEDTAVYYCAAQGKDYEASPGYDGGRNYWGQGTQVTVSS", "polyreactivity (PSR sort gate)": "low polyreactivity"}, {"sequence": "QVQVVESGGGLVQAGGSLRLSCAASGSTFYINAIGWYRQAPGNERELVAAIYFRGGSTYYADSVKGRFPISRDNAKNTVYVKMNSLKPEVTAVYYCAAYYYFFRRYSWRLSCDYWGQGTQVTVSS", "polyreactivity (PSR sort gate)": "low polyreactivity"}, {"sequence": "QVQLVEAGGRLVQAGGSLRLSCAASGGTFGTNNMGWYRQAPGKEMEVVAAISKRGGRTYYADSVKGRFTISRDNAKNTVYLQMNSLKPEDTAVYYCAADTGGNPKYDYWGQGTQVTVSS", "polyreactivity (PSR sort gate)": "high polyreactivity"}, {"sequence": "QVQLVESGGGLVQAGGSLRLSCAASGSTFYYYAMGWYRQAPGKERELVASISFSGGSTYYADSVKGRFTISRDNAKNTVYLQMNSLKPEDTAVYYCGYYYWGQGTQVTVSS", "polyreactivity (PSR sort gate)": "low polyreactivity"}, {"sequence": "QVQLVESGGGLVQAGGSLRLSCAASGSTFSYNAMGWYRQAPGKVRELVASINSRGGTTYYADSVKGRFTISRDNAKNTVYLQMNSRKPEDTAVYYCATDVYRLGEYDYWGQGTQVTVSS", "polyreactivity (PSR sort gate)": "low polyreactivity"}, {"sequence": "PVQLVESGGGLVQAGGSLRLSCAASGIIFSDYAMGWYRQGPGKERELVAAITGGVSKYYADSVKGRFTISRDNAKNTVYLQMNSLKPEDTAVYYCNTDAWLETPVSGYSWGQGTQVTVSS", "polyreactivity (PSR sort gate)": "low polyreactivity"}, {"sequence": "QVQLVESGGGLVQAGGSLRLICAASGITFRLNVMGWDRQAPGKERELVARISRAGSTKYADSVKGRFTISRDNAKNTVYLQMNCLKPEDTAVYYCNRYYRRATKVGYWGQGTQVTVSS", "polyreactivity (PSR sort gate)": "high polyreactivity"}, {"sequence": "QVQLVESGGALVQAGGSLRLSCAASGYTFSKYAMGWYRQAPGKERELVAAISKRGGSTSYADSVKGRFTISRDNAKNTVYLQMNILKPEDTAVYYCNAREWSRTFDYWGQGSQVTVSS", "polyreactivity (PSR sort gate)": "high polyreactivity"}, {"sequence": "QVQLVESGGGLVQAGGSLRLSCAASGRIFVYNAMGWYRQAPGKERELVAAITRGGSTYYADSVKGRFTISRDNAKNTVYLQMNSLKPEDTAVYYCASDYQRNDFRWYDYWGQGTQVTVSS", "polyreactivity (PSR sort gate)": "low polyreactivity"}, {"sequence": "QVQLVESGGRLVQAGGSLSLSCAASGIILLHYAMGWYRQAPGKERELVAAISSSGGRTYYADSVKGRFTISRDTAKITFYLQLTSLKPEDTAVYYCNTLTRLVYDGMGYWGQGTQVTVSS", "polyreactivity (PSR sort gate)": "high polyreactivity"}, {"sequence": "QVQLVESGGGLVQAGGSLRLSCAASGLIFAINAMGWYRQAPGKEREMVAAIRWSGDSTYADSVKGRFTISRDNAKNTVYLQMNSLKREDTAVYYCAADDLLDYDYWGQGTQVTVSS", "polyreactivity (PSR sort gate)": "low polyreactivity"}]}]}
